According to publication PMC4646684:

Assays:
[1] = target: soluble form of Fas ligand (mouse (endogenous in primary Balb/cJ bone marrow-derived osteoclast cultures))
[2] = target: soluble form of Fas ligand (mouse (endogenous in primary Balb/cJ bone marrow-derived osteoclast cultures)); remark: listed apart in the source

Sequence of soluble form of Fas ligand (mouse (endogenous in primary Balb/cJ bone marrow-derived osteoclast cultures)) (P41047 101-279): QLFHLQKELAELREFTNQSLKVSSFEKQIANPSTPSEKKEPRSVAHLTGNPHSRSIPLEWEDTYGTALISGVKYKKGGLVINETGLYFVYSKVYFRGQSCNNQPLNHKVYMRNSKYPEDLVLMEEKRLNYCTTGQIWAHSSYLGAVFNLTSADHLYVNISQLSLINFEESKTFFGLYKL

percentage of apoptotic osteoclasts (TUNEL-derived method), 24 h with OPG at 0, 20, 40, 80 ng/mL (22.7%, 34.8%, 43.5%, 51.3%) [1]: 51.3% | concentration of soluble FasL in the osteoclast culture medium by ELISA, 24 h with OPG at 0, 20, 40, 80 ng/mL (69.44, 54.51, 41.71, 4.59 pg/mL; falls with the dose) [2]: 69.4 pg/mL
Substance: Osteoprotegerin (from UniProt O08712 22-401) (receptor)
